Laboratory results published in patent US20230303715A1.

Tests used:
[1] = molecular target: soluble human FcRn (human) (UniProt P55899); test: SPR ProteOn, Ab on protein L, pH 6.0
FcγRIIb [2] = molecular target: FcγRIIb (UniProt P31994); test: SPR Biacore, Ab on HER2 chip
FcγRIIa [3] = molecular target: FcγRIIa (UniProt P12318); test: SPR Biacore, Ab on HER2 chip
FcγRIIb [4] = molecular target: FcγRIIb (UniProt P31994); test: SPR; KD wt/KD mut vs 16588
FcγRIIa [5] = molecular target: FcγRIIa (UniProt P12318); test: SPR; KD wt/KD mut vs 16588
[6] = molecular target: biotinylated human FcRn (produced by Protocol 1) (human) (UniProt P55899); test: SPR Biacore T200, FcRn on neutravidin, pH 6
FcγRIIaH [7] = molecular target: FcγRIIaH (UniProt P12318); test: SPR ProteOn, Ab on HER2 chip, equilibrium fit
FcγRIIaR [8] = molecular target: FcγRIIaR (UniProt P12318); test: SPR ProteOn, Ab on HER2 chip, equilibrium fit
FcγRIII [9] = molecular target: FcγRIII (UniProt P08637); test: SPR ProteOn, Ab on HER2 chip, equilibrium fit
FcγRI = FcγRI (UniProt P12314); test: SPR ProteOn, Ab on HER2 chip, equilibrium fit
FcγRIIb [10] = molecular target: FcγRIIb (UniProt P31994); test: SPR ProteOn, Ab on HER2 chip, equilibrium fit
FcγRIIaH [11] = molecular target: FcγRIIaH (UniProt P12318); test: SPR; KD wt/KD mut vs parental variant
FcγRIIaR [12] = molecular target: FcγRIIaR (UniProt P12318); test: SPR; KD wt/KD mut vs parental variant
[13] = molecular target: biotinylated human FcRn (produced by Protocol 1) (human) (UniProt P55899); test: SPR; KD wt/KD mut vs parental variant
FcγRIIb [14] = molecular target: FcγRIIb (UniProt P31994); test: SPR; KD wt/KD mut vs parental variant
FcγRIII [15] = molecular target: FcγRIII (UniProt P08637); test: SPR; KD wt/KD mut vs parental variant
FcγRIIb [16] = molecular target: FcγRIIb (UniProt P31994); test: SPR Biacore, Ab on HER2 chip; KD called ambiguous
FcγRIIa [17] = molecular target: FcγRIIa (UniProt P12318); test: SPR Biacore, Ab on HER2 chip; KD called ambiguous

Sequence of FcγRIIb (P31994 43-217 limits assumed): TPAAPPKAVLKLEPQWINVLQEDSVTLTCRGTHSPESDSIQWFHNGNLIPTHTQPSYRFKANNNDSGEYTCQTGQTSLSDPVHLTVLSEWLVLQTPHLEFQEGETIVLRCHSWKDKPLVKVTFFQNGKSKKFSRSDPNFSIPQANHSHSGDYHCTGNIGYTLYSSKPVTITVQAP
Sequence of FcγRIII (P08637 17-208 limits assumed): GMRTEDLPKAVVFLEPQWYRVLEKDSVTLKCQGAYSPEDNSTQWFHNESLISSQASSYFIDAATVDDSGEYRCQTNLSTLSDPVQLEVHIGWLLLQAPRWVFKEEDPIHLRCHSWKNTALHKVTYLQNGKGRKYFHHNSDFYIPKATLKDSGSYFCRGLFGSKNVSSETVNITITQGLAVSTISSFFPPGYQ
Sequence of biotinylated human FcRn (produced by Protocol 1) (human) (P55899 24-297 limits assumed, chain 1 of 2): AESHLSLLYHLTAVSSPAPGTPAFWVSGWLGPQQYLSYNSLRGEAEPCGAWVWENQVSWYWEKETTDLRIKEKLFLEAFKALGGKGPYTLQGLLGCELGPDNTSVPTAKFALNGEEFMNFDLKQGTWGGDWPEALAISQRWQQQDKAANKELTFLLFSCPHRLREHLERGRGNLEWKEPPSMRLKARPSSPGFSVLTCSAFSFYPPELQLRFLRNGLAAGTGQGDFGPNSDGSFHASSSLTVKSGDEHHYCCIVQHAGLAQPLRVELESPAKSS
Sequence of biotinylated human FcRn (produced by Protocol 1) (human) (P61769 21-119 limits assumed, chain 2 of 2, further chain): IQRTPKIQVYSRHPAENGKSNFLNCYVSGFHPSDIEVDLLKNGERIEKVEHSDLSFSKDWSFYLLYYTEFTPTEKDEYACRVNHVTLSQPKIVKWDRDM
Sequence of soluble human FcRn (human) (P55899 24-297 limits assumed, chain 1 of 2): as the sequence (P55899 24-297 limits assumed, chain 1 of 2) above
Sequence of soluble human FcRn (human) (P61769 21-119 limits assumed, chain 2 of 2, further chain): as the sequence (P61769 21-119 limits assumed, chain 2 of 2, further chain) above
Sequence of FcγRIIaR (P12318 34-217 H167R limits assumed): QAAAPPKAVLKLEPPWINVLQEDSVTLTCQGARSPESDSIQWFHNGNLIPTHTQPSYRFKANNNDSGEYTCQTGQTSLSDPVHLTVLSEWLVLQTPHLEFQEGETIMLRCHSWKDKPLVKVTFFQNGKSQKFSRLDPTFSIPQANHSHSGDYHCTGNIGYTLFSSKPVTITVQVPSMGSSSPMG
Sequence of FcγRI (P12314 16-292 limits assumed): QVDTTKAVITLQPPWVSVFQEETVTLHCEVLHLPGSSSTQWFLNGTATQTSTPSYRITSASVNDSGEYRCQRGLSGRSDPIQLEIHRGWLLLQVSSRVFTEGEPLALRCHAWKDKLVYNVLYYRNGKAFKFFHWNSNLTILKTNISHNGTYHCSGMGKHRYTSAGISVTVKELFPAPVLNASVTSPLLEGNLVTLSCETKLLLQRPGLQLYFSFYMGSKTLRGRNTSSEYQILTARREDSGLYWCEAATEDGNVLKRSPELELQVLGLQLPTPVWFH
Sequence of FcγRIIaH (P12318 34-217 limits assumed): as the sequence (P12318 34-217 H167R limits assumed) above, with R134H counted along it

Row | Substance | Kd (FcγRIIb [2]) | Kd (FcγRIIa [3]) | Relative FcγRIIb Binding (FcγRIIb [4]) | Relative FcγRIIa Binding (FcγRIIa [5]) | also measured
1 | trastuzumab Scaffold 1 variant 19321 (A287C_L306C) (antibody) | 3.67 µM | 1.13 µM | 1.03 | 0.98 | Kd [1]: 0.693 µM
2 | trastuzumab Scaffold 1 variant 19317 (L309Q) (antibody) | 3.68 µM | 1.15 µM | 1.03 | 0.96 | Kd [1]: 1 µM
3 | trastuzumab Scaffold 1 variant 19304 (T289W) (antibody) | 3.46 µM |  |  |  | 
4 | trastuzumab Scaffold 1 variant 19320 (L242C_K334C) (antibody) | 3.82 µM | 1.54 µM | 0.99 | 0.71 | Kd [1]: 0.645 µM
5 | trastuzumab Scaffold 1 variant 19306 (A339Q) (antibody) | 3.81 µM | 1.04 µM |  |  | 
6 | trastuzumab Scaffold 7 (S239D/I332E) variant v31519 (A287F_T250V) (antibody) |  |  |  |  | Kd [6]: 0.47 µM; Kd (FcγRIIaH [7]): 0.655 µM; Kd (FcγRIIaR [8]): 0.685 µM; Kd (FcγRIII [9]): 0.029 µM; Kd (FcγRI): 0.0108 nM
7 | trastuzumab Scaffold 1 variant 19327 (L242C_I336C) (antibody) | 3.22 µM | 1.14 µM | 1.18 | 0.97 | 
8 | trastuzumab Scaffold 7 (S239D/I332E) variant v31520 (M428F_T250V) (antibody) |  |  |  |  | Kd [6]: 0.286 µM; Kd (FcγRIIaH [7]): 0.644 µM; Kd (FcγRIIaR [8]): 0.667 µM; Kd (FcγRIII [9]): 0.0321 µM; Kd (FcγRI): 0.0145 nM; Kd (FcγRIIb [10]): 1.13 µM; Fold (FcγRIIaH [11]): 1.2; Fold (FcγRIIaR [12]): 1.2; Fold [13]: 1.2; Fold (FcγRIIb [14]): 1.1
9 | trastuzumab Scaffold 1 variant 19308 (M428F) (antibody) | 3.51 µM | 1.03 µM | 1.08 | 1.06 | Kd [1]: 0.464 µM
10 | trastuzumab Scaffold 1 variant 19325 (F275C_S304C) (antibody) | 4.91 µM |  |  |  | 
11 | trastuzumab Scaffold 1 variant 19309 (L242I) (antibody) | 5.07 µM |  |  |  | 
12 | trastuzumab Scaffold 6 (N297A) variant v31514 (A287F_M428F) (antibody) |  |  |  |  | Kd [6]: 0.369 µM; Kd (FcγRI): 16.2 nM; Fold [13]: 1.3
13 | trastuzumab variant v17078 (WT) (antibody) |  |  |  |  | Kd [6]: 0.292 µM; Kd (FcγRIIaR [8]): 2.07 µM; Kd (FcγRIII [9]): 1.48 µM; Kd (FcγRI): 0.0894 nM; Kd (FcγRIIb [10]): 6.85 µM
14 | trastuzumab Scaffold 1 variant 19311 (F275I) (antibody) | 2.22 µM | 0.745 µM | 1.71 | 1.48 | 
15 | trastuzumab Scaffold 1 variant 19310 (T250V) (antibody) | 3.05 µM | 0.899 µM | 1.24 | 1.22 | Kd [1]: 0.821 µM
16 | trastuzumab Scaffold 1 variant 19313 (V308I) (antibody) | 4.03 µM | 1.24 µM | 0.94 | 0.89 | 
17 | trastuzumab full-size antibody with N297A (Scaffold 6), variant v31513 |  |  |  |  | Kd [6]: 0.467 µM; Kd (FcγRI): 25.7 nM
18 | trastuzumab Scaffold 6 (N297A) variant v31516 (M428F_T250V) (antibody) |  |  |  |  | Kd [6]: 0.36 µM; Kd (FcγRI): 20 nM
19 | trastuzumab Scaffold 7 (S239D/I332E) variant v31518 (A287F_M428F) (antibody) |  |  |  |  | Kd [6]: 0.275 µM; Kd (FcγRIIaH [7]): 0.671 µM; Kd (FcγRIIaR [8]): 0.691 µM; Kd (FcγRIII [9]): 0.0309 µM; Kd (FcγRI): 0.0136 nM; Kd (FcγRIIb [10]): 1.15 µM; Fold (FcγRIIaH [11]): 1.2; Fold [13]: 1.2; Fold (FcγRIII [15]): 1

Row | Substance | Kd (FcγRIIb [2]) | Kd (FcγRIIa [3]) | Relative FcγRIIb Binding (FcγRIIb [4]) | Relative FcγRIIa Binding (FcγRIIa [5]) | also measured
20 | trastuzumab Scaffold 1 variant 19319 (K334R) (antibody) | 2.95 µM | 0.941 µM | 1.29 | 1.17 | 
21 | trastuzumab Scaffold 1 variant 19316 (M252S) (antibody) | 3.75 µM | 1.16 µM | 1.01 | 0.94 | 
22 | trastuzumab Scaffold 1 variant 19318 (L314M) (antibody) | 5.76 µM | 2.02 µM | 0.66 | 0.55 | 
23 | trastuzumab full-size antibody with S239D and I332E (Scaffold 7), variant v31517 |  |  |  |  | Kd [6]: 0.337 µM; Kd (FcγRIIaH [7]): 0.775 µM; Kd (FcγRIIaR [8]): 0.775 µM; Kd (FcγRIII [9]): 0.032 µM; Kd (FcγRIIb [10]): 1.25 µM
24 | trastuzumab Scaffold 1 variant 19324 (D249C_P257C) (antibody) | 14 µM |  |  |  | 
25 | trastuzumab Scaffold 1 variant 19314 (Y319F) (antibody) | 3.49 µM |  |  |  | 
26 | trastuzumab Scaffold 1 variant 19328 (T289C_S304C) (antibody) | 2.05 µM | 0.689 µM | 1.85 | 1.6 | 
27 | trastuzumab Scaffold 1 variant 19307 (A378W) (antibody) | 5.46 µM | 1.45 µM | 0.7 | 0.76 | 
28 | trastuzumab Scaffold 1 variant 19322 (V259C_L306C) (antibody) | 3.72 µM | 0.758 µM | 1.02 | 1.45 | 
29 | trastuzumab Scaffold 1 variant 19303 (A287F) (antibody) |  | 1.07 µM |  |  | Kd [1]: 0.69 µM
30 | trastuzumab Scaffold 1 variant 19326 (V263C_V302C) (antibody) |  |  | 1.35 | 1.14 | Kd [1]: 0.604 µM; Kd (FcγRIIb [16]): 2.82 µM; Kd (FcγRIIa [17]): 0.963 µM
31 | trastuzumab full-size antibody with homodimeric IgG1 Fc (Scaffold 1), variant 16588 (WT) | 3.8 µM |  |  |  | Kd [1]: 0.641 µM
32 | trastuzumab Scaffold 1 variant 19323 (R292C_V302C) (antibody) | 17.6 µM | 3.66 µM | 0.22 | 0.3 | 
33 | trastuzumab Scaffold 1 variant 19331 (V240C_I332C) (antibody) | 16.9 µM | 63.7 µM | 0.23 | 0.02 | 
34 | trastuzumab Scaffold 6 (N297A) variant v31515 (A287F_T250V) (antibody) |  |  |  |  | Kd [6]: 0.553 µM; Kd (FcγRI): 18.7 nM; Fold [13]: 0.8
35 | trastuzumab Scaffold 1 variant 19305 (A339W) (antibody) | 2.1 µM | 0.64 µM | 1.81 | 1.72 | 
36 | trastuzumab Scaffold 1 variant 19312 (V279I) (antibody) | 3.72 µM | 1.17 µM | 1.02 | 0.94 | 
37 | trastuzumab Scaffold 1 variant 19329 (F243C_T260C) (antibody) | 9.83 µM | 2.93 µM | 0.39 | 0.38 | 
